According to patent US20220098297A1:

Tests used:
[1] = molecular target: human TNF-α (human) (UniProt P01375); assay: cell-based or functional assay
[2] = molecular target: human IL-17A (human) (UniProt Q16552); assay: cell-based or functional assay
UniProt Q16552, sequence (Q16552 24-155 limits assumed): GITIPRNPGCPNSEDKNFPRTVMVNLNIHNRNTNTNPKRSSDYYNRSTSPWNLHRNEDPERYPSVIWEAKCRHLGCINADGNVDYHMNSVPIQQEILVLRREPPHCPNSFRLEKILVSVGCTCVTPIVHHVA

UniProt P01375, sequence (P01375 77-233 limits assumed): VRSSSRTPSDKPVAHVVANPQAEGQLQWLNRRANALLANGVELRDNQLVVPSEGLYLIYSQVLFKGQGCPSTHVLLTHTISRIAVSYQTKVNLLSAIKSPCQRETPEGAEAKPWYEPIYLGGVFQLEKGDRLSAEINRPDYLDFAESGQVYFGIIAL

IC50, hIL-6 secretion of commercial RA-FLS cells stimulated with IL-17A and TNF-α (co-neutralization) [1]: 0.0149 nM
IC50, hIL-6 secretion of commercial RA-FLS cells stimulated with hTNF-α [1]: 0.0186 nM
IC50, hIL-6 secretion of commercial RA-FLS cells stimulated with IL-17A and TNF-α (co-neutralization) [2]: 0.0149 nM
IC50, hIL-6 secretion of commercial RA-FLS cells stimulated with hIL-17A [2]: 0.371 nM
Substance: LY3114062 (bispecific antibody)
